What was measured:
[1] = tested on: AncSZ; assay: phosphorylation enrichment, bacterial display (enrichment ratio); higher = better substrate or ligand; peptides without Tyr show the background
[2] = target: EPHB1 (UniProt P54762); assay: as above
[3] = target: EPHB2 (UniProt P29323); assay: as above
[4] = target: FGFR1 (UniProt P11362); assay: as above
[5] = target: FGFR3 (UniProt P22607); assay: as above
[6] = tested on: Fer (mouse); assay: as above
[7] = target: Fes (UniProt P07332); assay: as above
[8] = target: Fyn (UniProt P06241); assay: as above
Fyn, sequence (P06241 whole entry, looked up): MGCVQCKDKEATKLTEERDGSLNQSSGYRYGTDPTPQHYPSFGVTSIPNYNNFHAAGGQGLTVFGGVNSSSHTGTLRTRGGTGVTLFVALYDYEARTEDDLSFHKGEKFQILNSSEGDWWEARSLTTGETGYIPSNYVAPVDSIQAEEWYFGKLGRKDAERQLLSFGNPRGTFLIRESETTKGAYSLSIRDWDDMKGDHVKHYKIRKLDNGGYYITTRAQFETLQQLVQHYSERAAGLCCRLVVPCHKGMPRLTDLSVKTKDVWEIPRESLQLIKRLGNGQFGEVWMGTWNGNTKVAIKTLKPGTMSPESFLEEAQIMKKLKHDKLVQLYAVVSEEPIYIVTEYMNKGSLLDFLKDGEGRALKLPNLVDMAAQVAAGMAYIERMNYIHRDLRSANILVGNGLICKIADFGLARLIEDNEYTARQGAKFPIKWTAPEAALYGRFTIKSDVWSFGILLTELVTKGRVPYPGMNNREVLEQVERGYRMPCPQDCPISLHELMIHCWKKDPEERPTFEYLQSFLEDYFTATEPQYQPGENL

[9] = target: Hck (UniProt P08631); assay: as above
[10] = target: Jak2 (UniProt O60674); assay: as above
Jak2, sequence (O60674 whole entry, looked up): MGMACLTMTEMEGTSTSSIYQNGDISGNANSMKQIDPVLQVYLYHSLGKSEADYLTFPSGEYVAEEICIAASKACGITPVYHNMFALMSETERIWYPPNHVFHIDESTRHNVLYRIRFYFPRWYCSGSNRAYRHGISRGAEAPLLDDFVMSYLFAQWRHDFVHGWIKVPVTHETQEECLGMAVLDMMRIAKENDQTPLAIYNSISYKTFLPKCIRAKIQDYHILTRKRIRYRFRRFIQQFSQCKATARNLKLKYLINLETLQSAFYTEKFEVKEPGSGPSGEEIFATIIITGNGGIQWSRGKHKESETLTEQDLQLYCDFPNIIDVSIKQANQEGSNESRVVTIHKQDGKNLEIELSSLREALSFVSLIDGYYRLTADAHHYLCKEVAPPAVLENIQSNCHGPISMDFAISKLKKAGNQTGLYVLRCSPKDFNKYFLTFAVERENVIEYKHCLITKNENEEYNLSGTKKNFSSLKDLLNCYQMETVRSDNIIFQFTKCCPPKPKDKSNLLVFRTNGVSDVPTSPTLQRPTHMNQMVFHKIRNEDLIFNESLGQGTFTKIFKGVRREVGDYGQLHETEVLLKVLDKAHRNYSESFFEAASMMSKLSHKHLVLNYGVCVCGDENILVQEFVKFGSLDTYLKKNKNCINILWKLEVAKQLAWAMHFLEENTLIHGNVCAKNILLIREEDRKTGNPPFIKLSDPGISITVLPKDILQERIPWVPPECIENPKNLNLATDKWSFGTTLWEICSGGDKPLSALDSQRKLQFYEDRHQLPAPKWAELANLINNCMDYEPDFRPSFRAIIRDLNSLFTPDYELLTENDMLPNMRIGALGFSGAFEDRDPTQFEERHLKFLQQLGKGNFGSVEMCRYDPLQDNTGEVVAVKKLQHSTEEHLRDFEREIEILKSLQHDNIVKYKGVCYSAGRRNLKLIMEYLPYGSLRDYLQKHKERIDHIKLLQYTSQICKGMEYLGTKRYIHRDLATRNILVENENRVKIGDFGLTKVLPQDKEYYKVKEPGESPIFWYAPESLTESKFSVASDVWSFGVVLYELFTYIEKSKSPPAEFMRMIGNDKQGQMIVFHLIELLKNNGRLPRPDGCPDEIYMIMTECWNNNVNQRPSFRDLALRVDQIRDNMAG

[11] = target: MERTK (UniProt Q12866); assay: as above
MERTK, sequence (Q12866 whole entry, looked up): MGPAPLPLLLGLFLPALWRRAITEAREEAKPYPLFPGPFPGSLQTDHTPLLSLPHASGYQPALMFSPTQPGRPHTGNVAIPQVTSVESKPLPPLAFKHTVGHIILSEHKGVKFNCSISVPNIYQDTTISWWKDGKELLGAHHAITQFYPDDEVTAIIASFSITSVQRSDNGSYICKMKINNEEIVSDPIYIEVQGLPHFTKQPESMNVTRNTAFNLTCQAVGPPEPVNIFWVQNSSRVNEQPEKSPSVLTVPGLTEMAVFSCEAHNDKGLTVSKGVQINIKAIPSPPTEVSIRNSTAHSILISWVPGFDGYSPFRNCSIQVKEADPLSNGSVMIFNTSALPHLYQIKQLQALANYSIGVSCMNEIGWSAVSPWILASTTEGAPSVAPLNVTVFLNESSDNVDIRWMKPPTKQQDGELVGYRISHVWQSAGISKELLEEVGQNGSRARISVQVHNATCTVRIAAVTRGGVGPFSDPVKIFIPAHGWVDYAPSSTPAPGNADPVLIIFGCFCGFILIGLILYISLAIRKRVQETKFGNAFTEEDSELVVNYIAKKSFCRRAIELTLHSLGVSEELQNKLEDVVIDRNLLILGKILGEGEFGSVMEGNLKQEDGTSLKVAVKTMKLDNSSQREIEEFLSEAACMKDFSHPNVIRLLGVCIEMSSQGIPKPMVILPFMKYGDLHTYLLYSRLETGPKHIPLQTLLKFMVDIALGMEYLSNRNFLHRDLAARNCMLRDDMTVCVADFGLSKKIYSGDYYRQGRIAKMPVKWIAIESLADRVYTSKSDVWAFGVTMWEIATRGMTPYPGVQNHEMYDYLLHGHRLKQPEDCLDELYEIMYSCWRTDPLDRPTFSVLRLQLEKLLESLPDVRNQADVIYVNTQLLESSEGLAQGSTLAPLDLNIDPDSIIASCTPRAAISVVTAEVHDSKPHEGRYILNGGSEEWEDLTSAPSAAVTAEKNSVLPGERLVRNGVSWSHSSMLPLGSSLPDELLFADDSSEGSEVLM

[12] = tested on: c-Abl (mouse); assay: as above
[13] = tested on: c-Src; assay: as above
[14] = target: Grb2 SH2 (UniProt P62993); assay: SH2 binding enrichment of the phosphorylated peptide, bacterial display (enrichment ratio); higher = better substrate or ligand; peptides without Tyr show the background
[15] = target: SHP2-C SH2; assay: as above
[16] = target: c-Src SH2; assay: as above
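For SH2 binding enrichment of the phosphorylated peptide, bacterial display in this document: peptide library displayed on the E. coli surface as eCPX fusions, selected cells deep-sequenced, score is each peptide's frequency after selection divided by its frequency in the input.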
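For phosphorylation enrichment, bacterial display in this document: 11-residue human phosphosite peptides and single-mutation variants displayed on the E. coli surface, counted by deep sequencing, each peptide's frequency after selection divided by its frequency in the unselected input library; frequency after pTyr selection over input frequency; kinase dosed for 20-30% of maximal phosphorylation in three min.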

EPHB2, sequence (P29323 whole entry, looked up): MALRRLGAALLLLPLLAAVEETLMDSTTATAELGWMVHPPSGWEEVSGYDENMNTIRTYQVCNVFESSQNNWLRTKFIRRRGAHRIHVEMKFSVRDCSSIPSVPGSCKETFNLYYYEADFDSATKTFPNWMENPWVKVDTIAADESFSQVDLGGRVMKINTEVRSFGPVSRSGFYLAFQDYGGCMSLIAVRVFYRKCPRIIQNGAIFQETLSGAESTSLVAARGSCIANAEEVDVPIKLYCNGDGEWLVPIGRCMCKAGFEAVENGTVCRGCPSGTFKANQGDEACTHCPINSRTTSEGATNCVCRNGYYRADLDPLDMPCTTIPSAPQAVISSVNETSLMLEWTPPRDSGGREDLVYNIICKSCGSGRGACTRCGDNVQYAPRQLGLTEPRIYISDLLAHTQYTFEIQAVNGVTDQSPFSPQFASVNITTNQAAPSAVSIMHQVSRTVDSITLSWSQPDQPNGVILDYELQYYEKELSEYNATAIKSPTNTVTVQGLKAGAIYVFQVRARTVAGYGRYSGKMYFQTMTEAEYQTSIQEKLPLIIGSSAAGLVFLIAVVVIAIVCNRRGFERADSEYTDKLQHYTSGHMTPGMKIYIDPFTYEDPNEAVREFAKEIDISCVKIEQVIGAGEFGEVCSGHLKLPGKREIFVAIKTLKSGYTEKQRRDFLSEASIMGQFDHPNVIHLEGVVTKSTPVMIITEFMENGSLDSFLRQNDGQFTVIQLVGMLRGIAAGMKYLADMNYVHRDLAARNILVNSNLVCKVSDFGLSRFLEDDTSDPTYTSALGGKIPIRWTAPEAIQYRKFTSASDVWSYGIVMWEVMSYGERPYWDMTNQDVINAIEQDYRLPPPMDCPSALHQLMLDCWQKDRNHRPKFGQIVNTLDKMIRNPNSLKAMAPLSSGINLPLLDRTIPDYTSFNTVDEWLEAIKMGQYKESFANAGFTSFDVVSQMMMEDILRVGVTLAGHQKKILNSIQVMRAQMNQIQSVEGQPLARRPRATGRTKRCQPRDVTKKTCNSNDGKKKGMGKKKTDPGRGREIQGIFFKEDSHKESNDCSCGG
EPHB1, sequence (P54762 whole entry, looked up): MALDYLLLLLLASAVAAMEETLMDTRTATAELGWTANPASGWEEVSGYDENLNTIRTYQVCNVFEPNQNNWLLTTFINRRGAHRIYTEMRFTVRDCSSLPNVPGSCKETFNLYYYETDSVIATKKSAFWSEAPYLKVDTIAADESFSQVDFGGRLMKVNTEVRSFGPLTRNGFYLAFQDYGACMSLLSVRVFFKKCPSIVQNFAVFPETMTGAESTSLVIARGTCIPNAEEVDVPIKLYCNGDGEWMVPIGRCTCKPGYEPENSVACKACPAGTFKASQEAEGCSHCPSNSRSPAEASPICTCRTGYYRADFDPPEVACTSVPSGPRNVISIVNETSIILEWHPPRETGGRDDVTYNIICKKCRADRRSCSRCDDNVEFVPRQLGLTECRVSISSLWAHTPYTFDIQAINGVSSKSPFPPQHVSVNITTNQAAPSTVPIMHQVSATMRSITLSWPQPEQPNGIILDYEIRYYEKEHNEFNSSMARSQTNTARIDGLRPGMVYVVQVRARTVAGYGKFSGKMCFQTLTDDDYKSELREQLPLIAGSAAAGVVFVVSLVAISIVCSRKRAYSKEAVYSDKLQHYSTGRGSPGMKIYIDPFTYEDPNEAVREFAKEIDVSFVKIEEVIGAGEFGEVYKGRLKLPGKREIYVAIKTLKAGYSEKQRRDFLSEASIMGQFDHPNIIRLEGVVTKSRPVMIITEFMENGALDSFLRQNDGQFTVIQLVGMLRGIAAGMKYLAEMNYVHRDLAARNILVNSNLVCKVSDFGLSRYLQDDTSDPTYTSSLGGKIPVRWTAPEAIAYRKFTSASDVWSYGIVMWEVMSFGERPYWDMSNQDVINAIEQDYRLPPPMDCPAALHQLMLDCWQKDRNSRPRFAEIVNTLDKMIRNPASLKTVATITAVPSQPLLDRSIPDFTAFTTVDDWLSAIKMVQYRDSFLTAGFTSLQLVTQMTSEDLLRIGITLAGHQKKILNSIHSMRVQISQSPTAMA

Row | SH2 binding enrichment [14] | SH2 binding enrichment [15] | SH2 binding enrichment [16] | Sequence | phosphorylation enrichment [1] | phosphorylation enrichment [2] | phosphorylation enrichment [3] | phosphorylation enrichment [4] | phosphorylation enrichment [5] | phosphorylation enrichment [6] | phosphorylation enrichment [7] | phosphorylation enrichment [8] | phosphorylation enrichment [9] | phosphorylation enrichment [10] | phosphorylation enrichment [11] | phosphorylation enrichment [12] | phosphorylation enrichment [13]
1 | 0.978 | 0.839 | 0.643 | DPFHVYIKNHV [KCNE3_Y95_R99H_YF] | 1.22 | 0.671 | 0.735 | 0.469 | 0.918 | 0.585 | 1.32 | 0.382 | 0.519 | 1.2 | 0.354 | 0.915 | 0.403
2 | 0.414 | 0.481 | 0.315 | DLSEVYKPRRK [CCDC93_Y176] | 0.761 | 0.513 | 0.454 | 0.352 | 0.575 | 0.521 | 0.623 | 0.579 | 0.407 | 0.574 | 0.634 | 0.59 | 0.573
3 | 0.76 | 0.914 | 0.451 | IHTDAYVRAMT [RPE65_Y89_R85H] | 0.475 | 0.35 | 0.414 | 0.389 | 0.401 | 0.407 | 0.589 | 0.375 | 0.397 | 0.442 | 0.319 | 0.474 | 0.363
4 | 0.918 | 0.672 | 0.472 | IFETDYFRKGG [INSR_Y1189_YF] | 0.988 | 0.568 | 0.626 | 0.536 | 0.686 | 0.581 | 0.938 | 0.5 | 0.529 | 0.934 | 0.436 | 0.741 | 0.539
5 | 0.876 | 0.582 | 0.545 | DRLASYLDKLR [KRT12_Y139_V143L] | 0.921 | 0.494 | 0.567 | 0.458 | 0.597 | 0.479 | 0.894 | 0.459 | 0.472 | 0.713 | 0.45 | 0.868 | 0.498
6 | 0.857 | 0.75 | 0.654 | TIQIMYGCDVG [HLA-A_Y123] | 1.37 | 0.647 | 0.664 | 0.476 | 0.817 | 0.597 | 1.43 | 0.438 | 0.581 | 1.64 | 0.439 | 1.18 | 0.633
7 | 1.28 | 1.3 | 1.06 | TVLWLYTGTRP [UGT1A1_Y337_R336L] | 1.17 | 0.548 | 0.487 | 0.369 | 0.742 | 0.527 | 1.27 | 0.68 | 0.466 | 1.06 | 0.318 | 0.532 | 0.255
8 | 1.2 | 1.02 | 0.946 | FCVDCYKNFVA [FHL1_Y213_YF] | 0.862 | 0.533 | 0.751 | 0.57 | 0.617 | 0.523 | 0.957 | 0.562 | 0.529 | 0.898 | 0.487 | 0.776 | 0.461
9 | 0.734 | 0.824 | 0.861 | SGSIHYSRVPR [GLB1_Y57] | 0.629 | 0.542 | 0.436 | 0.772 | 0.578 | 0.535 | 0.763 | 0.605 | 0.529 | 0.772 | 0.64 | 0.716 | 0.677
10 | 0.745 | 0.765 | 0.342 | NKVFTYIFIME [SCN4A_Y1074_D1069N] | 1.28 | 0.685 | 0.613 | 0.507 | 0.857 | 0.589 | 1.71 | 0.46 | 0.509 | 1.46 | 0.419 | 0.99 | 0.487
11 | 1.6 | 1.88 | 1.67 | SYCYRYRCAAW [SUMF1_Y344_R349W] | 0.707 | 0.445 | 0.453 | 0.532 | 0.508 | 0.404 | 0.785 | 0.395 | 0.386 | 0.508 | 0.497 | 0.594 | 0.471
12 | 0.846 | 0.614 | 0.465 | DRQASYLDKVR [KRT16_Y131_L128Q] | 0.536 | 0.39 | 0.419 | 0.39 | 0.424 | 0.324 | 0.662 | 0.418 | 0.399 | 0.609 | 0.388 | 0.494 | 0.385
13 | 0.825 | 0.698 | 0.609 | AGQEDYDRLRP [CDC42_Y64] | 1.13 | 0.598 | 0.654 | 0.576 | 0.69 | 0.508 | 1.07 | 0.546 | 0.785 | 0.839 | 0.471 | 0.689 | 0.452
14 | 0.78 | 0.893 | 0.792 | SASQEYHIVKK [PDZD2_Y557] | 0.779 | 0.512 | 0.527 | 0.905 | 0.538 | 0.48 | 0.676 | 0.422 | 0.513 | 0.572 | 0.507 | 0.697 | 0.441
15 | 1.09 | 0.823 | 0.651 | FTFDPYSEEDP [IL2RB_Y387_YF] | 1.08 | 0.694 | 0.642 | 0.61 | 0.698 | 0.686 | 1.23 | 0.839 | 0.562 | 1.17 | 0.426 | 0.772 | 1.18
16 | 0.955 | 1.28 | 6.8 | LTYHMYADPNF [SOS1_Y618] | 2.15 | 4.48 | 6.29 | 4.45 | 3.01 | 1.09 | 1.88 | 6.26 | 4.13 | 2.66 | 5.2 | 7.02 | 8.75
17 | 0.861 | 9.3 | 8.52 | VNQSGYTLIRK [ATP6V0A2_Y688_R685Q] | 0.572 | 0.42 | 0.478 | 0.452 | 0.465 | 0.401 | 0.563 | 0.387 | 0.476 | 0.538 | 0.433 | 0.391 | 0.418
18 | 0.8 | 0.574 | 0.457 | EEVPLYESATT [DCC_Y809_G805E] | 1.5 | 2.19 | 2.66 | 0.487 | 0.878 | 6.01 | 1.32 | 1.07 | 1.49 | 1.27 | 0.601 | 1.04 | 1.09
19 | 0.742 | 0.605 | 0.719 | FGISGYVVDSV [MAP2K3_Y214_L215V] | 0.775 | 0.543 | 0.517 | 0.478 | 0.623 | 0.421 | 0.956 | 0.449 | 0.49 | 0.761 | 0.443 | 0.532 | 0.412
20 | 0.871 | 0.469 | 0.539 | MVTSGYKAKMI [EFR3A_Y447_T451M] | 0.563 | 0.401 | 0.528 | 0.384 | 0.389 | 0.393 | 0.589 | 0.355 | 0.39 | 0.695 | 0.414 | 0.552 | 0.435
21 | 0.803 | 0.85 | 0.527 | GRPLFYWLTGC [LYZL6_Y140] | 0.968 | 0.686 | 0.491 | 0.533 | 0.836 | 0.418 | 1.13 | 0.407 | 0.42 | 1.04 | 0.469 | 0.713 | 0.33
22 | 1.01 | 0.971 | 0.679 | VFGEEYEEQPR [ZMYM2_Y1033] | 1.39 | 0.585 | 0.767 | 0.614 | 0.731 | 0.514 | 1.39 | 0.534 | 0.526 | 1.23 | 0.386 | 0.709 | 0.443
23 | 0.882 | 0.666 | 0.515 | CSDPSYVKQME [CDC5L_Y464_Y459C] | 1.22 | 0.703 | 0.626 | 0.488 | 0.931 | 0.661 | 1.38 | 0.467 | 0.492 | 1.13 | 0.493 | 0.849 | 0.488
24 | 1.02 | 2.08 | 0.752 | TVLWWYTGTRP [UGT1A1_Y337_R336W] | 1.3 | 0.458 | 0.513 | 0.389 | 0.68 | 0.398 | 1.32 | 0.4 | 0.41 | 1.23 | 0.277 | 0.599 | 0.311
25 | 0.603 | 0.657 | 0.496 | FFCRWYRNQKS [EREG_Y144_R147Q_YF] | 0.775 | 0.493 | 0.489 | 0.347 | 0.478 | 0.513 | 0.6 | 0.482 | 0.596 | 0.488 | 0.497 | 0.855 | 0.57
26 | 0.935 | 1.02 | 0.597 | LKGQVYILGLE [ASS1_Y359_R363L] | 1.37 | 0.971 | 0.658 | 0.467 | 0.961 | 0.664 | 1.99 | 0.49 | 0.985 | 1.23 | 0.518 | 0.759 | 0.633
27 | 0.835 | 0.813 | 0.516 | KDHPDYKFQAR [SOX10_Y171_P175A_YF] | 0.757 | 0.409 | 0.408 | 0.466 | 0.489 | 0.485 | 0.658 | 0.458 | 0.482 | 0.559 | 0.405 | 0.626 | 0.489
28 | 0.969 | 0.696 | 0.525 | KVPELYEIHTE [BCR_Y554_K558T] | 1.19 | 0.94 | 0.945 | 0.578 | 0.68 | 0.74 | 0.984 | 0.629 | 0.745 | 0.827 | 0.508 | 0.712 | 0.546
29 | 0.874 | 1.28 | 0.723 | KVMANYVYKAG [MAML2_Y513_M514V] | 0.465 | 0.395 | 0.37 | 0.398 | 0.452 | 0.358 | 0.551 | 0.339 | 0.386 | 0.514 | 0.361 | 0.453 | 0.355

Source: the supplement of paper PMC10065799, “High-throughput profiling of sequence recognition by tyrosine kinases and SH2 domains using bacterial peptide display” (eLife, 2023)
